From PMC4358337, “How lamina-associated polypeptide 1 (LAP1) activates Torsin” (eLife, 2014)

Assays:
Conditions in all cases: both partners purified
[1] = target: T1, luminal domain of human LAP1 (aa356-583) (human, UniProt Q5JTV8); assay: crystal structure; LAP1-VHH-BS1 complex formed with twofold molar excess of VHH-BS1, SEC purified; crystals in 20% PEG 3350, 100 mM Bis-Tris pH 5.5, 200 mM ammonium sulfate, 18°C; 1.6 Å
T1 construct: luminal domain of human lamina-associated polypeptide 1 (LAP1), aa356-583; Tag removed with human rhinovirus 3C protease; disulfide bond C424-C582 seen in the structure; also called LAP1(356-583); Lamina-associated polypeptide 1; not shown: 6xHis-7xArg, N-terminal, cleaved
T1 sequence (Q5JTV8 356-583): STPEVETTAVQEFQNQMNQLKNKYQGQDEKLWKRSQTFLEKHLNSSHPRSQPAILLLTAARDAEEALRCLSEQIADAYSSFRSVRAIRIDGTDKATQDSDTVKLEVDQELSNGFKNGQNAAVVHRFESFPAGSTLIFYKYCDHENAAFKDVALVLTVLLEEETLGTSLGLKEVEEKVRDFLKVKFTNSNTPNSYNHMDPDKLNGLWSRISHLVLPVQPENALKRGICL

[2] = target: T2, luminal domain of human LAP1 (aa356-583), untagged, co-expressed with TorsinA (human, UniProt Q5JTV8); assay: in vitro precipitation assay (competition); 100 pmol preformed TorsinA(E171Q):LAP1 complex with 200 pmol VHH, 4°C, 10 mM HEPES/NaOH pH 8.0, 150 mM NaCl, 10 mM MgCl2, 0.25 mM ATP; soluble and insoluble protein separated by centrifugation, SDS-PAGE
T2 construct: luminal domain of human lamina-associated polypeptide 1 (LAP1), aa356-583, untagged; From a second, kanamycin resistant modified pETDuet-1 vector; also called LAP1(356-583)
T2 sequence (Q5JTV8 356-583): as above

[3] = target: T3, human TorsinA(E171Q) (aa51-322) (human, UniProt O14656 51-322, E171Q); assay: SEC; analytical gel filtration of the co-purified complexes, Superdex 200 10/300, 10 mM HEPES/NaOH pH 8.0, 150 mM NaCl, 10 mM MgCl2, 0.5 mM ATP; peak fractions by SDS-PAGE
T3 construct: human TorsinA, aa51-322 as printed; Captured by its tag on nickel resin; the nickel eluate was used directly for electron microscopy; Whether the tag was removed before the analytical gel filtration and the precipitation assay is not clearly told; not shown: 6xHis-7xArg, N-terminal, kept
T3 sequence (looked up): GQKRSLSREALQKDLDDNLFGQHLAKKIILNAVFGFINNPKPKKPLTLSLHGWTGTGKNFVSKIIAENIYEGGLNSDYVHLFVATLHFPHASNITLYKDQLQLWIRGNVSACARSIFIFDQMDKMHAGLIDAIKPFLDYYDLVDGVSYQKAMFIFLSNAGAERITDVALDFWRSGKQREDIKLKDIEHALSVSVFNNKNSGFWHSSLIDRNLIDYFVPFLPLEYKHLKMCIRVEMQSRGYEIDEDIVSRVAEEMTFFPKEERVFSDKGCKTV

B1: VHH-BS1 (VHH)
VHH: QVQLVESGGGLVQAGGSLRLSCAASGRTLSSYAVGWFRQAPGLEREFVATISRSGGSTHYADSVKGRFTISRDNAKNTVYLQMNSLKPEDTAVYYCAATFTPDGSWYYTRGSSYDYWGQGTQVTVSS
notes: alpaca VHH selected by phage display against LAP1; Raised by immunising an alpaca with recombinant LAP1; expressed from pET-28b(+); also called camelid single domain (VHH) antibody fragment against LAP1
binding result [1]: binds
binding result [2]: binds

B2: luminal domain of human LULL1 (aa233-470), untagged, co-expressed with TorsinA (domain or fragment)
chain: not shown
notes: luminal domain of human LULL1, aa233-470, untagged; The results once print LULL1(322-570); the methods print aa233-470 throughout; also called LULL1(233-470); Luminal domain-Like LAP1
stoichiometry N [3]: 1

B3: luminal domain of human LAP1 (aa356-583), untagged, co-expressed with TorsinA (domain or fragment)
chain: not shown
notes: luminal domain of human lamina-associated polypeptide 1 (LAP1), aa356-583, untagged; From a second, kanamycin resistant modified pETDuet-1 vector; also called LAP1(356-583)
stoichiometry N [3]: 1
